{"source": "the nanobody polyreactivity screen of Harvey et al. (2022)", "data": [{"assay": "yeast display, Sf9 membrane polyspecificity reagent, FACS + sequencing; frameworks hold sequencing errors", "in_short": "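Galactose induction of a Saccharomyces cerevisiae BJ5465 synthetic nanobody display library ran 36–48 hours. The cells were then stained for 1 hour at 4 °C with 10% biotinylated, detergent-solubilized Sf9 membrane reagent, pulled down on streptavidin microbeads and FACS-sorted into low and high (top ~1%) gates on expression and reagent-binding fluorescence. Labels for polyreactivity follow the gate of origin.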", "values": [{"sequence": "QVQLVESGGGLVQAGGSLRLSCAASGFIFPTYAMGWYRQAPGKERELVAAISRSGGRTYYADSVKGRFTISRDNAKNTVYLQKNSLKPEDTAVYYCAAAYLRRVAYDYWGQGTQVTVSS", "polyreactivity (PSR sort gate)": "high polyreactivity"}, {"sequence": "QVQLVESGGGLVQAGGSLRLSCAASGFIFPVNAMGWYRQAAGKERELVAAITSSGGDTYYADSVKGRFTISRDNAKNTVYLQMNSLKPEDTAVYYCAAEYTQEQEDYDYWGQGTQLTVSS", "polyreactivity (PSR sort gate)": "low polyreactivity"}, {"sequence": "QVQLVESGGGLVQAGGSLRLSCAASGFIFPWYAMGWYRLAPGKERELVAIISWDTGSTYYADSVKGRFTISRDNAKNTVYLQMNSLKPEDTAVYYCVAYVCSTYSAPEYYWGQGTQVTVSS", "polyreactivity (PSR sort gate)": "low polyreactivity"}, {"sequence": "QVQLVESGGGLVQAGGSLRLSCAASGFIFPWYSMVWSRQAPGKERELVAAISRGGRTNYADSVKGRFTISRDNAKNTVYLQMNSLIPEDTAVYYCAKKYYLSGSRADDSWGQGTQVTVSS", "polyreactivity (PSR sort gate)": "high polyreactivity"}, {"sequence": "QVQLVESGGGLVQAGGSLRLSCAASGFIFPYYALGWYRQAPGKEREFVAAISKTAGRTYYADSVKGRFTISRDNAKNTVYLQMNSLKPEDTAVYYCAVGNKRDAYYQYSSYGYWGQGTQVTVSS", "polyreactivity (PSR sort gate)": "low polyreactivity"}, {"sequence": "QVQLVESGGGLVQAGGSLRLSCAASGFIFPYYAMGWYRQAPGKDRELVAAISQSGGSTYYADSVKGRFTISRDYAKNTVYLQMNSLKPEDTEVYYCAKFIPSYHDGDYWGQGTQVTVSS", "polyreactivity (PSR sort gate)": "low polyreactivity"}, {"sequence": "QVQLVESGGGLVQAGGSLRLSCAASGFIFPYYAMGWYRQAPGKERELVAAILTGGSTYYADSVKGRFTISRDNAKNTVYLQMNSLKAEDSAVYYCAARRKYDPNYYWGQGTQVTVSS", "polyreactivity (PSR sort gate)": "high polyreactivity"}, {"sequence": "QVQLVESGGGLVQAGGSLRLSCAASGFIFPYYAMGWYRQAPGKERELVATITSSGGSTYYADSVKGRFTISRDNAKNTVYLQMNSLKPEDTAVYYCAARRRYKYYGSRYDYWGQGTQVTVSS", "polyreactivity (PSR sort gate)": "high polyreactivity"}, {"sequence": "QVQLVESGGGLVQAGGSLRLSCAASGFIFQGYVMGRYRQAPGKVREFVAAISRSGGTTFYADSVKGRFTISRDNAKNPVYLQMNSLKPEDTAVYYCNRAPLGRPGYDYWGPGTQVTVSS", "polyreactivity (PSR sort gate)": "high polyreactivity"}, {"sequence": "QVQLVESGGGLVQAGGSLRLSCAASGFIFQKYAMGWYRQAPGKERELVAAITKRGGSTYYADSVKGRFTISRDNAKNTVYLQMNSLKPEDTAVYYCAAYAYDYEYDYWGQGTQVTVSS", "polyreactivity (PSR sort gate)": "high polyreactivity"}, {"sequence": "QVQLVESGGGLVQAGGSLRLSCAASGFIFQQNAMGWYRQAPAKERELVAAINRSGGSTNYADSVKGRFTISRDNAKNTVYLQMNSLKPEDTAVYYCATNGRSFVSKSTMYYWGQGTQVTVSS", "polyreactivity (PSR sort gate)": "high polyreactivity"}, {"sequence": "QVQLVESGGGLVQAGGSLRLSCAASGFIFQRYAMGWYRPAPGKERELVAAISWSGGSTSYADSVKGRFTISRDNAKNPVYLQMYSLKPVDTAVYYCAARRPVYRKYGDRGRWYNYWGQGTQVTVSS", "polyreactivity (PSR sort gate)": "high polyreactivity"}, {"sequence": "QVQLVESGGGLVQAGGSLRLSCAASGFIFQRYAMGWYRQAPGKERELVAAISWSGGITYYADSVKGRFTISRDNAKNTVYLQMHSLKPEDTAVYYCAAGLAVGDYYWGQGTQVTVSS", "polyreactivity (PSR sort gate)": "high polyreactivity"}, {"sequence": "QVQLVESGGGLVQAGGSLRLSCAASGFIFQSYAMGWYRQAPGKERELVAAISASGGRTYYADSVKGRFTISRDNAKNTVYLQMNSLKPEDNAVYYCNARPAGRGYNYWGQGTQVTVSS", "polyreactivity (PSR sort gate)": "high polyreactivity"}, {"sequence": "QVQLVESGGGLVQAGGSLRLSCAASGFIFQTNHMGWYRQAPGKERELVAAISSGDSTYYADSVKGRFTISRDNAKNTVYLQMNSLIPEDTAVYYCAADVLGTTTVGGFNYWGQGTQVTVSS", "polyreactivity (PSR sort gate)": "low polyreactivity"}, {"sequence": "QVQLVESGGGLVQAGGSLRLSCAASGFIFQYYAMGWFRQARGKERELVAAIRSGGSTYYADSVKGRFTISRDNAKNTFYLQLNSLKPEDTAVYFCGAKYRVFYGFDYWGQGTQVTVSS", "polyreactivity (PSR sort gate)": "high polyreactivity"}, {"sequence": "QVQLVESGGGLVQAGGSLRLSCAASGFIFQYYAMGWYRQAPGKERELVAVIRSGGSTYYADSVKGRFTISRDNAKNTVYLQMNSLKPEDTAVYYCARPSRGPPRGYYWGHGTQVTVSS", "polyreactivity (PSR sort gate)": "high polyreactivity"}]}]}
